Laboratory results from publication PMC10716038, “Talin and kindlin use integrin tail allostery and direct binding to activate integrins” (Nature Structural & Molecular Biology, 2023).
Where a chain is given by its changes, count along the chain named. Where “and” joins values, the source holds several entries; their conditions need not be identical. Equal entries are not always repeated. No end group written: not given here.

Legend:
Conditions in all cases: both partners purified
[1] = biological target: T1, talin-2 head domain (THD2) (UniProt Q71LX4 1-408); experiment: MST; unlabelled protein titrated to 50-200 nM ATTO 488-labelled β-CT peptide, no third protein; 20 mM Tris pH 7.5, 200 mM NaCl, 1 mM TCEP, 0.05% Tween-20; Kd of individual titrations (in S0002 mean and sd, n = 2)
T1 construct: talin-2 (TLN2) head domain (THD), residues 1-408; source: E. coli (DE3) Rosetta 2, purified (IMAC, SEC); not shown: His10-SUMO, N-terminal, cleaved
T1 sequence (Q71LX4 1-408): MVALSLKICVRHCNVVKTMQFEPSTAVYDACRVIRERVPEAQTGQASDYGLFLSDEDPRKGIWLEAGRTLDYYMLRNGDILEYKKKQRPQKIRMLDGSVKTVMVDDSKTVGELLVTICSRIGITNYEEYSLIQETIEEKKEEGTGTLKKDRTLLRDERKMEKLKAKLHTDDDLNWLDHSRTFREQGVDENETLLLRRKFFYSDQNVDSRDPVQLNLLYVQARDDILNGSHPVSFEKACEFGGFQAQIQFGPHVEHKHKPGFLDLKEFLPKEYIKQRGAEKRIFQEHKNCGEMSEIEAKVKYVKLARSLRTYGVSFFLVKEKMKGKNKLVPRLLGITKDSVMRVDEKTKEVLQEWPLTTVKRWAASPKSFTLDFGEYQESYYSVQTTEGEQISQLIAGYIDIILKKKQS

kindlin-2 (KIND2) [2] = biological target: T2, kindlin-2 (KIND2) (UniProt Q8CIB5 1-680); experiment: MST; apparent; KIND2 titrated to 488–β3-CT in the presence of 250–450 µM THD1; MST buffer
T2 construct: kindlin-2 (KIND2), recombinant; with the F1 loop and the PH domain (unlike ΔKIND2); source: E. coli Rosetta, purified (IMAC, SEC); not shown: His10-SUMO, N-terminal, cleaved
T2 sequence (looked up): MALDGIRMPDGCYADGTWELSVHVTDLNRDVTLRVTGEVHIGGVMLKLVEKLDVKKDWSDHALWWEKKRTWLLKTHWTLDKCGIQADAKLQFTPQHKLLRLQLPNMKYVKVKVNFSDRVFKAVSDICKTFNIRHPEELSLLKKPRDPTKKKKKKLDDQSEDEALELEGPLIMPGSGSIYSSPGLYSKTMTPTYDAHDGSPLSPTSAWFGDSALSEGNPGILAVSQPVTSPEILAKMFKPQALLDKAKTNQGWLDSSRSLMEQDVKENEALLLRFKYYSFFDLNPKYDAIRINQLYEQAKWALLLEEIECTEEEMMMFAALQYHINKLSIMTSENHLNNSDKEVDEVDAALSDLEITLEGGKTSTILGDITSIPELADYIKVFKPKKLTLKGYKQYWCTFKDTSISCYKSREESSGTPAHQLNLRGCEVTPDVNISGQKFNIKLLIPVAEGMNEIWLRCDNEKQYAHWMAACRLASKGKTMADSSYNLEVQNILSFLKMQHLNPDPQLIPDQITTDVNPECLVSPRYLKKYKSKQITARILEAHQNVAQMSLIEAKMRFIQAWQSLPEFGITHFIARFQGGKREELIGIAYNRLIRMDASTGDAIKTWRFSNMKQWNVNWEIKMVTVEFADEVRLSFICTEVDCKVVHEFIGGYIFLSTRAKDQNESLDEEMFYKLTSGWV

KIND2 Y13A [3] = biological target: T3, KIND2 Y13A (UniProt Q8CIB5 1-680, Y13A); experiment: MST; apparent; KIND2-Y13A titrated to 488–β3-CT or KIND2 to 488–β1-spacer-CT in the presence of 300-400 µM THD1; MST buffer
T3 construct: kindlin-2 (KIND2), recombinant, Y13A; source: E. coli Rosetta, purified (IMAC, SEC); not shown: His10-SUMO, N-terminal, cleaved
T3 sequence (looked up): T2 sequence (looked up) with Y13A

KIND2 Y13A [4] = biological target: T3, KIND2 Y13A; experiment: MST; unlabelled protein titrated to 50-200 nM ATTO 488-labelled β-CT peptide, no third protein; 20 mM Tris pH 7.5, 200 mM NaCl, 1 mM TCEP, 0.05% Tween-20; Kd of individual titrations (in S0002 mean and sd, n = 2)
[5] = biological target: T4, talin-1 head domain (THD1) (UniProt P26039 1-405); experiment: MST; apparent; THD1 titrated to 488–β1-CT or 488–β3-CT in the presence of 300–400 µM β-CT-binding-impaired KIND2 Q614A,W615A (QW/AA); MST buffer
T4 construct: talin-1 (TLN1) head domain (THD), residues 1-405; murine TLN1 cDNA is named only for the cell lines; also called WT; source: E. coli (DE3) Rosetta 2, purified (IMAC, SEC); not shown: His10-SUMO, N-terminal, cleaved
T4 sequence (P26039 1-405): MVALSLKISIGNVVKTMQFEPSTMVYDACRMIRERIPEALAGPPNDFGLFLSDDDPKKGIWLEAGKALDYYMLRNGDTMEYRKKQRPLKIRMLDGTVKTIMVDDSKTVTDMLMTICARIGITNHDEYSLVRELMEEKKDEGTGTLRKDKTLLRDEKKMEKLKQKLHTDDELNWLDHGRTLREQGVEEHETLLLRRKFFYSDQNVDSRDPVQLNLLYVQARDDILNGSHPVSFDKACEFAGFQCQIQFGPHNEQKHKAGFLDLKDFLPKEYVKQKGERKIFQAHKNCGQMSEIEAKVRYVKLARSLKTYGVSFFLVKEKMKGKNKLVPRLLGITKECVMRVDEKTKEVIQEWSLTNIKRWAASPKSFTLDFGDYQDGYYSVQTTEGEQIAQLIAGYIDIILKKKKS

kindlin-2 (KIND2) [6] = biological target: T2, kindlin-2 (KIND2); experiment: MST; apparent; KIND2 titrated to 488–β3-CT in the presence of 250-450 µM TLN2-F3; MST buffer
[7] = biological target: T1, talin-2 head domain (THD2); experiment: MST; apparent; THD1 titrated to 488–β1-CT or THD2 to 488–β3-CT in the presence of 30 µM KIND2; MST buffer
[8] = biological target: T4, talin-1 head domain (THD1); experiment: MST; apparent; THD1 titrated to 488–β3-CT in the presence of 30-40 µM KIND2-Y13A; MST buffer
kindlin-2 (KIND2) [9] = biological target: T2, kindlin-2 (KIND2); experiment: MST; apparent; KIND2 titrated to 488–β3-CT in the presence of 120 µM THD1-K402E; MST buffer

- Kd [1]: 31.7 µM and 32.1 µM and 49.1 µM
- Kd (kindlin-2 (KIND2) [2]): 30.7 µM and 85.6 µM and 31.9 µM and 66 µM
- Kd (KIND2 Y13A [3]): 24 µM and 20.7 µM and 18.8 µM
- Kd (KIND2 Y13A [4]): 9.85 µM and 9.2 µM and 9.18 µM and 7.89 µM
- Kd [5]: 183 µM and 137 µM and 88 µM
- Kd (kindlin-2 (KIND2) [6]): 55.8 µM and 30.2 µM and 54.2 µM
- Kd [7]: 39.1 µM and 36.2 µM and 54 µM
- Kd [8]: 283 µM and 241 µM and 188 µM and 159 µM
- Kd (kindlin-2 (KIND2) [9]): 16.4 µM and 15.8 µM and 16.7 µM
B1: ATTO 488-labeled integrin β3 cytoplasmic tail (488–β3-CT) (peptide, UniProt O54890 741-787, looked up)
peptide: {ATTO 488}-KLLITIHDRKEFAKFEEERARAKWDTANNPLYKEATSTFTNITYRGT
notes: integrin β3 cytoplasmic tail (β3-CT); source: synthetic peptide (MPIB Core Facility)
